This is an account of results in patent US20110009597A1, “RECOMBINANT GANODERMA LUCIDIUM IMMUNOMODULATORY PROTEIN (rLZ-8) AND USES THEREOF” (priority 2008, published 2011).

Test [1] concerns Human Promyelocytic Leukemia NB4 Cells. Briefly: Killing effect of rLZ-8 on NB4 cells (MTT, OD570nm). Type of test: cell-based. The settings on record: As2O3 10 μg ml^−1, 48 h. Here is the method: After filtration and degerming, we prepared 8 concentrations using IMDM culture medium which are respectively 0.78 μg·ml^−1, 1.56 μg·ml^−1, 3.125 μg·ml^−1, 6.25 μg·ml^−1, 12.5 μg·ml^−1, 25 μg·ml^−1, 50 μg·ml^−1, 100 μg·ml^−1.
On 96-orifice culture medium plate, the pilot orifice plus NB4 tumor cells 0.1 ml and rLZ-8 0.1 ml, rLZ-8 concentrates from low to high; negative control group plus NB4 tumor cells and culture medium of 0.1 ml respectively; positive drug control group arsenic trioxide As2O3; make six-aperture multipunches for each group. Placing in 37° C., 5% CO2 incubator 48 h, adding MTT15 μl (5 mg ml^−1) prior to the termination of 4 h, after the termination of cell culture by adding 100 μl 0.1 mol L^−1 hydrochloric acid isopropyl alcohol, testing on the enzyme-linked immunosorbent OD570nm values.

The subject of test [2] is Human Chronic Myelogenous Leukemia K562 Cells. Briefly: Lethal effect of rLZ-8 on K562 cells (MTT, OD570nm). The settings on record: As2O3 10 μg ml^−1, 48 h. The test is classed as cell-based. How it is done: After sterilization of rLZ-8, we prepared 6 concentrations using IMDM culture medium, which are respectively 3.125 μg·ml^−1, 6.25 μb·ml^−1, 12.5 μg·ml^−, 25 μg·ml^−1, 50 μg·ml^−1, 100 μg·ml^−1.
On 96-orifice culture plate, the pilot aperture plus K562 tumor cells 0.1 ml and rLZ-8 0.1 ml, rLZ-8 concentrations from low to high; negative control group plus K562 tumor cells and culture medium of the 0.1 ml respectively; positive drug control group arsenic trioxide As2O3; make six-aperture multipunches for each group. Placing in 37° C., 5% CO2 incubator 48 h, adding MTT15 μl (5 mg ml^−1) prior to the termination of 4 h, after the termination of cell culture by adding 100 μl 0.1 mol L^−1 hydrochloric acid isopropyl alcohol, testing OD values570nm on the enzyme immunosorbent detector.

The test system of test [3] is NB4. The experiment in a line: Annexin V-FITC flow cytometry, apoptosis of NB4. Conditions: NB4, As2O3 0.5 μg·ml^−1, 24 h, Annexin V/PI. The test is classed as cell-based. Here is the method: (§1) FACS Calibur flow cytometry, U.S. Becton-Dickinson.Coompany. NB4, HL-60. rLZ-8 is prepared with IMDM culture medium containing 2% FCS into the preparation of 0.1 μg·ml^−1, 0.5 μg·ml^−1, 2.5 μg·ml^−1, arsenic trioxide (As2O3) 0.5 μg·ml^−1 AnnexinV-FITC kit: combining buffer solution 4×; Propidium iodide solution (PI), 20 μg·ml−1, 0.2 ml; recombinant human Annexin V/FITC, 0.1 ml.
(§2) Establish NB4 normal control group, positive drug group (As2O3 0.5 μg·ml^−1), protein low-dose group (0.1 μg·ml^−1), medium-dose group (0.5 μg·ml^−1), high-dose group, (2.5 μg·ml^−1); establish HL-60 normal control group, protein low-dose group (0.1 μg·ml^−1), medium-dose group (0.5 μg·ml^−1), high-dose group, (2.5 μg·ml^−1).
(§3) Mix NB4 and HL-60 cell into 24-orifice plate respectively, 1 ml/hole supply rLZ-8 in different concentrates, set 3-orifice multipunches for each group. Put them in 37° C., 5% CO2 incubator for 24 h, collect the cells of each concentrate, washes the cells twice with pre-cooled PBS 4° C., with 250 μl binding buffer solution re-suspending cells and regulates the cell density to 1×10^6/ml, taking out 100 μl to 5 ml streaming tube, and add 5 μl Annexin V/FITC and 10 μl 20 μg·ml^−1 PI solution, after mixing put it in room temperature and lucifuged hatching 15 min, add 400 μl PBS by flow cytometry analysis.

Test [4] concerns HL-60. Briefly: Annexin V-FITC flow cytometry, apoptosis of HL-60. The test is classed as cell-based. The settings on record: HL-60, positive drug group, 24 h, Annexin V/PI. Here is the method:
as §1, §2, §3
On the technique in general: A flow cytometer gives signals particle by particle.

Test [5] relates to WBC. Briefly: Cyclophosphamide low-leucocyte mice model, WBC. The test is classed as in vivo. The settings on record: Genlei Scimax 3.2 μg·kg−1. More on the design: unit not given here. Here is the method: rLZ-8 preparation of sterile saline. Divide them into 5 μg·kg^−1, 2.5 μg√kg^−1, 1.25 μg·kg^−1, 0.62 μg·kg^−1 dose groups.
Genlei™ Scimax™ [Recombinant human granulocyte colony-stimulating factor injection (rhG-CSF)], production lot: 20060403; 75 μg/vial is prepared with sterile normal saline into the preparation of 3.2 μg·kg^−1, 0.2 ml/vial.
Cyclophosphamide (CP) for injection (the production lot number 050216; 200 mg/vial) is prepared with sterile normal saline into the preparation of 12.5 mg·kg^−1, 0.2 ml/vial.
Normal control group, several protein dose groups, positive control group (Genlei™ Scimax™).
(§4) Excluding the normal control group (given same normal saline), each group of mice were given tail vein injection of cyclophosphamide, 1.25 μg·kg^−1, 0.2 ml/vial, for 3 consecutive days. On 3rd day, rat tail venous blood sampling, sent to Jilin University First Hospital laboratory, cell analyze the number of WBC. After successful modeling, they were given to the above groups respective dose of rLZ-8 and positive drugs (Genlei™ Scimax™) treatment, the normal control group and CP groups were given same normal saline, on the 3rd, 7th and 14th day of the treatment to draw venous blood from mice tail respectively, sent to Jilin University First Hospital testing the numbers of WBC. Compare WBC changes before and after the treatment for analysis of drug efficacy.

Test [6] has as its system WBC. Briefly: Cyclophosphamide low-leucocyte rat model, WBC. Type of test: in vivo, rats. More on the design: unit not given here. The settings on record: Genlei Scimax 9.45 μg·kg−1. Here is the method:
rLZ-8 preparation of sterile saline. Divide them into 20 μg·kg^−1, 10 μg·kg^−1, 5 μg·kg^−1, 2.5 μg·kg^−1, 1.25 μg·kg^−1, 0.625 μg·kg^−1, 0.31 μg·kg^−1 dose groups.
Genlei™ Scimax™ [Recombinant human granulocyte colony-stimulating factor injection (rhG-CSF)], production lot: 20060403; 75 μg/vial is prepared with sterile normal saline into the preparation of 9.45 μg·ml^−1, 0.1 ml/vial.
Cyclophosphamide (CP), the production lot number 050216; 200 mg/vial is prepared with sterile normal saline into the preparation of 20 mg·ml^−1, 0.1 ml/vial, namely, 49 mg·kg^−1.
Normal control group, protein low-dose group, protein medium-dose group, protein high-dose group, positive control group (Genlei™ Scimax™)
as §4, with “rats” for “mice”, “20 mg·ml^−1, 0.1” for “1.25 μg·kg^−1, 0.2”

For test [7], the system named is WBC. Briefly: Prevention of radiation leucopenia model of mice, WBC. The settings on record: Genlei Scimax 3.2 μg. The test is classed as in vivo. More on the design: unit not given here. How it is done: rLZ-8 preparation of sterile saline. Divide them into 5 μg·kg^−1, 2.5 μg·kg^−1, 1.25 μg·kg^−1, 0.62 μg·kg^−1 dose groups. 0.2 ml/vial.
Genlei™ Scimax™ [Recombinant human granulocyte colony-stimulating factor injection (rhG-CSF)], production lot: 20060403; 150 μg/vial is prepared with sterile normal saline into the preparation of 3.2 μg·kg^−1, 0.2 ml/vial.
The mice were irradiated by 7.5 Gy γ-ray (180 mV, 15 mA) and then divided into seven groups (n=10): (A) negative control; (B) 5 μg·kg−1 dose; (C) 2.5 μg·kg−1 dose; (D) 1.25 μg·kg−1 dose; (E) 0.62 μg·kg−1 dose; (F) positive control (Genlei™ Scimax™); (G) model group. Before modeling 5 days, mice in each group were administered with Genlei™ Scimax™ and rLZ-8 for 5 days, on the 5th day, mice were radiated, for 5 days, and on the 7th day, drew blood from tail, tested the number of WBC, weight spleen, calculated index of spleen.

The test system of test [8] is WBC. Briefly: Treatment of radiation leucopenia model of mice, WBC. The test is classed as in vivo. More on the design: unit not given here. The settings on record: Genlei Scimax 3.2 μg·kg^−1; 7.5 Gy γ-ray. Here is the method: (§5) rLZ-8 preparation of sterile saline. Divide them into 5 ∞g·kg^−1, 2.5 μg·kg^−1, 1.25 μg·kg^−1, 0.62 μg·kg^−1 dose groups. 0.2 ml/vial.
(§6) Genlei™ Scimax™ [Recombinant human granulocyte colony-stimulating factor injection (rhG-CSF)], production lot: 20060403; 150m/vial is prepared with sterile normal saline into the preparation of 3.2 μg·kg^−1, 0.2 ml/vial.
(§7) The mice were irradiated by 7.5 Gy γ-ray (180 mV, 15 mA) and then divided into seven groups (n=10): (A) negative control; (B) 5 μg·kg−1 dose; (C) 2.5 μg·kg−1 dose; (D) 1.25 μg·kg−1 dose; (E) 0.62 μg·kg−1 dose; (F) positive control (Genlei™ Scimax™); (G) model group. Together with modeling, mice in each group were administered with Genlei™ Scimax™ and rLZ-8 for 9 days, drew blood from tail, tested the number of WBC, weight spleen, calculated index of spleen.

Test [9] concerns spleen. The experiment in a line: Colony forming unit-spleen and spleen index in radiation model of mice. The test is classed as in vivo. Conditions: Genlei Scimax 3.2 μg·kg^−1. How it is done:
as §5, §6, §7

Consider “arsenic trioxide [As2O3, reference compound]”, for which the “Growth inhibition rate (%)” value in test [1] is recorded as 72%; in [2] it was 78.2%. Moreover, the values for the OD570 nm in test [1] and in test [2] were 0.33 ± 0.01 and 0.22 ± 0.03, respectively. The values for the Apoptosis rate in test [3] and in test [4] were 23.4% and 39.7%, respectively.

B1: Genlei ™ Scimax ™: Recombinant human granulocyte colony-stimulating factor injection (rhG-CSF) (protein, UniProt P09919 31-207, looked up)
Granulocyte …: TPLGPASSLPQSFLLKCLEQVRKIQGDGAALQEKLVSECATYKLCHPEELVLLGHSLGIPWAPLSSCPSQALQLAGCLSQLHSGLFLYQGLLQALEGISPELGPTLDTLQLDVADFATTIWQQMEELGMAPALQPTQGAMPAFASAFQRRAGGVLVASHLQSFLEVSYRVLRHLAQP
As for B1, in [5], the “WBC, 3rdday of medication” value is recorded as 5.5 ± 0.12; the “WBC, 7thday of medication” value was 22.7 ± 0.12; the “WBC, 14thday of medication” value is given as 13.0 ± 0.19. Besides, in test [6], the “WBC, 3rdday of medication” value is listed as 1.4 ± 0.11; the “WBC, 7thday of medication” value was 13.1 ± 0.21; the “WBC, 14thday of medication” value worked out at 10.3 ± 0.14. Besides, the “WBC, 5th day (rLZ-8)” value in test [7] (5th day of administration before radiation) was 21.8 ± 0.35. Also, in test [7] (after 7.5 Gy γ-ray), the “WBC, 5th day” value came to 0.26 ± 0.20 and the “WBC, 7th day” value is recorded as 0.22 ± 0.12. For the same molecule, in test [8], the “WBC, 5th day” value worked out at 0.68 ± 0.35; the “WBC, 7th day” value is listed as 0.58 ± 0.35; the “WBC, 9th day” value came out at 0.80 ± 0.11. In test [9], the “colony forming unit-spleen number” value was 6.0 ± 0.11, the growth rate is reported as 26% and the “index (spleen)” value was determined as 0.20 ± 0.10.
